Test results taken from patent US20110263014A1, “Cleavage of Nanog by Caspases Mediates the Differentiation of Embryonic Stem Cells” (BAYLOR COLLEGE OF MEDICINE, priority 2008, published 2011).
Entries after “also recorded” stand apart in the source; their conditions may differ.

Legend:
R1 ES cells = test: Apoptosis rate (counting apoptotic bodies); type: cell-based, mouse; conditions: over 72 hours post-stimulation with RA
Procedure: R1 ES cells (1×10^5) were plated into 6-cm dishes on irradiated MEFs and stimulated with RA differentiation medium for up to 72 hours. Cells were fixed with 4% paraformaldehyde (EMS, cat. no. 15710), stained with DAPI and mounted with Vectashield (Vector Lab, cat. no. H1200). The number of apoptotic figures was determined in triplicate per 100 cells. As a positive control, ES cells were incubated with staurosporine (Sigma, cat. no. 55921, 1 μM) for 4 hours.

caspase-3 = target: T1, caspase-3 (Homo sapiens, UniProt P42574); test: caspase-3 activity assay (CaspGlo) with Nanog cleavage site peptides; type: biochemical; conditions: FIG. 10B
T1 construct: purchased BD Bioscience 556471
T1 sequence (P42574 29-175 limits assumed): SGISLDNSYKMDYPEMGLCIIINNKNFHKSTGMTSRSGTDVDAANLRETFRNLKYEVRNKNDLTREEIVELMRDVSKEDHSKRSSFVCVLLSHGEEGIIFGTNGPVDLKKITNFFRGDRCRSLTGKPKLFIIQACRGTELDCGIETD
T1 sequence (P42574 176-277 limits assumed): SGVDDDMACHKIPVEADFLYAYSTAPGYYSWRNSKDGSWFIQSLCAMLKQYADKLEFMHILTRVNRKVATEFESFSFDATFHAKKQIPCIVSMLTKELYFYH
Procedure: Trypsinized ES cells (R1; 200,000; D3 250,000) were plated into 6 wells containing normal ES cell medium, and on the next day the medium was changed to 1 μM RA differentiation medium. Cells were harvested with trypsin-EDTA (Invitrogen, cat. no. 25300-054), and protein extracts were made in 0.1% CHAPS buffer, pH 7.2 (50 mM Hepes; 150 mM KCl; 1× protease inhibitors (Roche, cat. no. 1697498001); 2 mM Na fluoride and orthovanadate, respectively, at specified time points. The CaspGlo (Promega, cat. no. G8091) kit was used to directly measure caspase activity. Before determining caspase activity, we tested the system for variability within the dynamic range, using recombinant caspase-3 (BD Bioscience, cat. no. 556471). The signal was measured with the Wallac 1429 Victorll instrument (Perkin-Elmer, Wellesley, Mass.).

CC1=C(/C=C/C(C)=C/C=C/C(C)=C/C(=O)O)C(C)(C)CCC1 [RA, retinoic acid]
percentage of cells undergoing apoptosis (R1 ES cells): essentially no increases

GSPD: mNanog caspase cleavage site peptide
inhibition / targeting of caspase-3 by cleavage site peptide (caspase-3): effectively inhibit caspase-3; also recorded: still targeted by caspase-3

DSPD: hNanog caspase cleavage site peptide
inhibition / targeting of caspase-3 by cleavage site peptide (caspase-3): effectively inhibit caspase-3
